Experimental data from patent US20180185459A1 (PORTOLA PHARMACEUTICALS, published 2018).
Positions count from the first letter of the chain named.

B1: EGR-Xa, active site inhibited full length human fXa (human plasma derived) (protein)
chain 1: ANSFLEEMKKGHLERECMEETCSYEEAREVFEDSDKTNEFWNKYKDGDQCETSPCQNQGKCKDGLGEYTCTCLEGFEGKNCELFTRKLCSLDNGDCDQFCHEEQNSVVCSCARGYTLADNGKACIPTGPYPCGKQTLER
chain 2: IVGGQECKDGECPWQALLINEENEGFCGGTILSEFYILTAAHCLYQAKRFKVRVGDRNTEQEEGGEAVHEVEVVIKHNRFTKETYDFDIAVLRLKTPITFRMNVAPACLPERDWAESTLMTQKTGIVSGFGRTHEKGRQSTRLKMLEVPYVDRNSCKLSSSFIITQNMFCAGYDTKQEDACQGDSGGPHVTRFKDTYFVTGIVSWGEGCARKGKYGIYTKVTAFLKWIDRSMKTRGLPKAKSHAPEVITSSPLK
B2: r-Antidote (processed two-chain polypeptide, human factor Xa triple mutant after removal of the -RKRRKR- linker) (other)
chain 1: ANSFLFWNKYKDGDQCETSPCQNQGKCKDGLGEYTCTCLEGFEGKNCELFTRKLCSLDNGDCDQFCHEEQNSVVCSCARGYTLADNGKACIPTGPYPCGKQTLER
chain 2: B1 chain 2 with S185A

Assays:
[1] = target: T1, cofactor factor Va of the prothrombinase complex (endogenous, in human plasma), P12259
T1 chain 1: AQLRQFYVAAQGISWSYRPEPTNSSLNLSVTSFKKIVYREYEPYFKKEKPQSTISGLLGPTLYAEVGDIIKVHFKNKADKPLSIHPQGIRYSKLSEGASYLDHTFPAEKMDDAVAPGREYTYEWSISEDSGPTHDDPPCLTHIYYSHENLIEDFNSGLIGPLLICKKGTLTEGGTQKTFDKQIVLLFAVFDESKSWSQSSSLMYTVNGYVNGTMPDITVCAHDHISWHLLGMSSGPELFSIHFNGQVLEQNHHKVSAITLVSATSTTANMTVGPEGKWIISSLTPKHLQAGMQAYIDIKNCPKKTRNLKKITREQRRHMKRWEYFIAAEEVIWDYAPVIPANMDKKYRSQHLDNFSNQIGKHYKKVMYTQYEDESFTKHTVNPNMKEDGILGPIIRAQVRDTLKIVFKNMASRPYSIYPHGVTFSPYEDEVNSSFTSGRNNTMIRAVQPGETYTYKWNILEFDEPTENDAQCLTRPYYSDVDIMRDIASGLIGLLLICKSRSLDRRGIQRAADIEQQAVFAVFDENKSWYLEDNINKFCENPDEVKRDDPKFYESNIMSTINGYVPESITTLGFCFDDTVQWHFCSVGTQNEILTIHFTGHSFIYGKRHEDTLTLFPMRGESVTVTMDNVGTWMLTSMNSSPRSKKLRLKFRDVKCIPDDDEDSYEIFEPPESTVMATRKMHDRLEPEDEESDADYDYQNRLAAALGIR
T1 chain 2: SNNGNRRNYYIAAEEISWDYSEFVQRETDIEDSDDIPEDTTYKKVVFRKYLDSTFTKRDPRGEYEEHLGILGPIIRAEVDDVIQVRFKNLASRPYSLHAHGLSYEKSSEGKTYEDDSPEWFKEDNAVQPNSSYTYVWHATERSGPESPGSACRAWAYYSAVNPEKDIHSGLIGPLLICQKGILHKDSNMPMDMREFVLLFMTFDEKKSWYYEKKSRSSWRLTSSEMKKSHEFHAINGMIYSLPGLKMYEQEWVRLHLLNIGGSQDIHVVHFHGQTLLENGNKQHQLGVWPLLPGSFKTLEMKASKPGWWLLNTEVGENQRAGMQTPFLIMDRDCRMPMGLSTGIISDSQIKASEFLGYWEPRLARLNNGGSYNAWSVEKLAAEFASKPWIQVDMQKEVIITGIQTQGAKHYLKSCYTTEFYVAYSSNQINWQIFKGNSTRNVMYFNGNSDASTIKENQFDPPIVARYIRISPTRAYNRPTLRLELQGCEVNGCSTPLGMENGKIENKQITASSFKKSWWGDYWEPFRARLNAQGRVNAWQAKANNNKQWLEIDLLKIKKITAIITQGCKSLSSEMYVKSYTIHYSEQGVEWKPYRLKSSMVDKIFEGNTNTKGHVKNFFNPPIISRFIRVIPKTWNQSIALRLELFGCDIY

[2] = target: ATIII-fondaparinux complex (human antithrombin III with fondaparinux bound) (human, UniProt P01008 33-464, non-covalently bound fondaparinux (synthetic pentasaccharide)); experiment: cell-based or functional assay
ATIII-fondaparinux complex (human antithrombin III with fondaparinux bound), sequence (P01008 33-464 limits assumed, one chain of several): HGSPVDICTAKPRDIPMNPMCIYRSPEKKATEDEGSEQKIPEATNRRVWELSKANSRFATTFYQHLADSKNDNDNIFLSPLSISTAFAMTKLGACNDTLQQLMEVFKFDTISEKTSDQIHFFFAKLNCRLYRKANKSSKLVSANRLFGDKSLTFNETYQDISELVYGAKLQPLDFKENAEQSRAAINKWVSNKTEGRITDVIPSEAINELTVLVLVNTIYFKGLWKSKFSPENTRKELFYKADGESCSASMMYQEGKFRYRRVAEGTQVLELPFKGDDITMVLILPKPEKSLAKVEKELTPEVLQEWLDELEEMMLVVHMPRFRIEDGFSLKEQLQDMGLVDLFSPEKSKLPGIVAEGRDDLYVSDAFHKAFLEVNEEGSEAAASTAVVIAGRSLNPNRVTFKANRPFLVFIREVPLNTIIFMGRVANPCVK

Row | Binder | IIa formation (RFU) in tissue factor-initiated thrombin generation in human plasma against EGR-Xa concentration [1] | IC50 (read off the curve): r-Antidote concentration that halves kiapp of fXa inhibition by the ATIII-fondaparinux complex [2] [nM]
1 | B1 | circles: falls steeply from about 380,000 RFU at 0 nM to about 180,000 and about 85,000 RFU at the next points, below 50,000 RFU by about 100 nM and about 10,000 RFU at about 500 nM | 
2 | B2 |  | ~100
